B1: PDLIM7 (parent)
chain: AAGGVPGGGSNNGKTPVCHQCHKV
B2: KLHL12 (parent)
chain: SMTTPRCYVGATVLRGRLYAIAGY

Variants of: B1
Assay: protein stability index of a GFP-peptide fusion (GPS, HEK-293T) (PSI 1-6); higher = more stable
Details: c terminus: a fixed tail appended
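Further: lentivirally expressed fusions sorted by FACS into six bins by GFP to DsRed ratio, PSI derived from sequencing read proportions per bin multiplied by bin number.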

| Variant | protein stability index |
| --- | --- |
| AAGGVPGGGQNNGKTPVCHQCHKV [S10Q] | 3.02 |
| AAGGVPGGGTNNGKTPVCHQCHKV [S10T] | 2.67 |

Variants of: B2
Assay: as above
Details: c terminus: a fixed tail appended

| Variant | protein stability index |
| --- | --- |
| SMTTPRCYVHATVLRGRLYAIAGY [G10H] | 1.85 |
| SMTTPRCYVYATVLRGRLYAIAGY [G10Y] | 2.21 |
| SMTTPRCYVKATVLRGRLYAIAGY [G10K] | 2.11 |
| SMTTPRCYVAATVLRGRLYAIAGY [G10A] | 1.29 |
| SMTTPRCYVNATVLRGRLYAIAGY [G10N] | 1.95 |
| SMTTPRCYVEATVLRGRLYAIAGY [G10E] | 3.01 |
| SMTTPRCYVCATVLRGRLYAIAGY [G10C] | 2.8 |
| SMTTPRCYVIATVLRGRLYAIAGY [G10I] | 2.94 |
| SMTTPRCYVPATVLRGRLYAIAGY [G10P] | 1.91 |
| SMTTPRCYVMATVLRGRLYAIAGY [G10M] | 2.75 |
| SMTTPRCYVDATVLRGRLYAIAGY [G10D] | 1.1 |
| SMTTPRCYVTATVLRGRLYAIAGY [G10T] | 3.52 |
| SMTTPRCYVLATVLRGRLYAIAGY [G10L] | 2.13 |
| SMTTPRCYVWATVLRGRLYAIAGY [G10W] | 1.11 |
| SMTTPRCYVFATVLRGRLYAIAGY [G10F] | 1.36 |
| SMTTPRCYVSATVLRGRLYAIAGY [G10S] | 1.02 |
| SMTTPRCYVGATDLRGRLYAIAGY [V13D] | 1.28 |
| SMTTPRCYVGATALRGRLYAIAGY [V13A] | 1.83 |
| SMTTPRCYVGATELRGRLYAIAGY [V13E] | 2.69 |
| SMTTPRCYVGATCLRGRLYAIAGY [V13C] | 1.58 |
| SMTTPRCYVGATFLRGRLYAIAGY [V13F] | 1.85 |
| SMTTPRVYVGATVLRGRLYAIAGY [C7V] | 2.13 |
| SMTTPRIYVGATVLRGRLYAIAGY [C7I] | 3.84 |

| Variant | protein stability index |
| --- | --- |
| SMTTPRHYVGATVLRGRLYAIAGY [C7H] | 1.16 |
| SMTTPRRYVGATVLRGRLYAIAGY [C7R] | 2.43 |
| SMTTPRAYVGATVLRGRLYAIAGY [C7A] | 1.32 |
| SMTTPRKYVGATVLRGRLYAIAGY [C7K] | 2.18 |
| SMTTPRGYVGATVLRGRLYAIAGY [C7G] | 3.82 |
| SMTTPRTYVGATVLRGRLYAIAGY [C7T] | 2.16 |
| SMTTPREYVGATVLRGRLYAIAGY [C7E] | 1.47 |
| SMTTPRQYVGATVLRGRLYAIAGY [C7Q] | 1.71 |
| SMTTPRSYVGATVLRGRLYAIAGY [C7S] | 3.15 |
| SMTTPRPYVGATVLRGRLYAIAGY [C7P] | 1.06 |
| SMTTPRLYVGATVLRGRLYAIAGY [C7L] | 3.82 |
| SMTTPRFYVGATVLRGRLYAIAGY [C7F] | 3.95 |
| SMTTPRNYVGATVLRGRLYAIAGY [C7N] | 1.62 |
| SMTTPRDYVGATVLRGRLYAIAGY [C7D] | 2.41 |
| SMTTPRMYVGATVLRGRLYAIAGY [C7M] | 4.32 |
| SMTTPRCYVGAVVLRGRLYAIAGY [T12V] | 3.43 |
| SMTTPRCYVGAGVLRGRLYAIAGY [T12G] | 1.18 |
| SMTTPRCYVGACVLRGRLYAIAGY [T12C] | 2.41 |
| SMTTPRCYVGASVLRGRLYAIAGY [T12S] | 1.63 |
| SMTTPRCYVGAAVLRGRLYAIAGY [T12A] | 1.68 |
| SMTTPRCYVGAQVLRGRLYAIAGY [T12Q] | 1.92 |
| SMTTPRCYVGAIVLRGRLYAIAGY [T12I] | 2.46 |
| SMTTPRCYVGAPVLRGRLYAIAGY [T12P] | 1.94 |

| Variant | protein stability index |
| --- | --- |
| SMTTPRCYVGADVLRGRLYAIAGY [T12D] | 1.85 |
| SMTTPRCYVGAKVLRGRLYAIAGY [T12K] | 2.48 |
| SMTTPRCYVGAFVLRGRLYAIAGY [T12F] | 2.4 |
| SMTTPRCYVGALVLRGRLYAIAGY [T12L] | 2.77 |
| SMTTPRCYVGAEVLRGRLYAIAGY [T12E] | 1.1 |
| SMTTPRCYVGARVLRGRLYAIAGY [T12R] | 2.21 |
| SMTTPRCYVGAYVLRGRLYAIAGY [T12Y] | 4.56 |
| SMTTPRCYVGAMVLRGRLYAIAGY [T12M] | 3.47 |
| SMTTPRCYVGANVLRGRLYAIAGY [T12N] | 2.87 |
| SMTTRRCYVGATVLRGRLYAIAGY [P5R] | 4.23 |
| SMTTSRCYVGATVLRGRLYAIAGY [P5S] | 3.27 |
| SMTTMRCYVGATVLRGRLYAIAGY [P5M] | 2.98 |
| SMTTTRCYVGATVLRGRLYAIAGY [P5T] | 2.22 |
| SMTTYRCYVGATVLRGRLYAIAGY [P5Y] | 2.19 |
| SMTTNRCYVGATVLRGRLYAIAGY [P5N] | 2.22 |
| SMTTHRCYVGATVLRGRLYAIAGY [P5H] | 4.85 |
| SMTTQRCYVGATVLRGRLYAIAGY [P5Q] | 2.71 |
| SMTTWRCYVGATVLRGRLYAIAGY [P5W] | 2.99 |
| SMTTIRCYVGATVLRGRLYAIAGY [P5I] | 1.79 |
| SMTTPRCYGGATVLRGRLYAIAGY [V9G] | 1.93 |
| SMTTPRCYRGATVLRGRLYAIAGY [V9R] | 3.6 |
| SMTTPRCYWGATVLRGRLYAIAGY [V9W] | 2.17 |
| SMTTPRCYEGATVLRGRLYAIAGY [V9E] | 2.3 |

| Variant | protein stability index |
| --- | --- |
| SMTTPRCYQGATVLRGRLYAIAGY [V9Q] | 1.96 |
| SMTTPRCYKGATVLRGRLYAIAGY [V9K] | 1.63 |
| SMTTPRCYPGATVLRGRLYAIAGY [V9P] | 1.7 |
| SMTTPRCYHGATVLRGRLYAIAGY [V9H] | 2.62 |
| SMTTPRCYTGATVLRGRLYAIAGY [V9T] | 1.74 |
| SMTTPRCYDGATVLRGRLYAIAGY [V9D] | 1.4 |
| SMTTPRCYMGATVLRGRLYAIAGY [V9M] | 2.43 |
| SMTTPRCYFGATVLRGRLYAIAGY [V9F] | 2.87 |
| SMTTPRCYLGATVLRGRLYAIAGY [V9L] | 3.27 |
| SMTTPRCYNGATVLRGRLYAIAGY [V9N] | 2.26 |
| SMTTPRCYIGATVLRGRLYAIAGY [V9I] | 2.74 |
| SMTTPRCYYGATVLRGRLYAIAGY [V9Y] | 3.18 |
| SMTTPRCYSGATVLRGRLYAIAGY [V9S] | 1.82 |
| SMTTPRCYAGATVLRGRLYAIAGY [V9A] | 2 |
| SMTTPGCYVGATVLRGRLYAIAGY [R6G] | 1.27 |
| SMTTPICYVGATVLRGRLYAIAGY [R6I] | 1.55 |
| SMTTPACYVGATVLRGRLYAIAGY [R6A] | 1.73 |
| SMTTPSCYVGATVLRGRLYAIAGY [R6S] | 2.42 |
| SMTTPKCYVGATVLRGRLYAIAGY [R6K] | 2.04 |
| SMTTPNCYVGATVLRGRLYAIAGY [R6N] | 2.26 |
| SMTTPLCYVGATVLRGRLYAIAGY [R6L] | 1.18 |
| SMTTPPCYVGATVLRGRLYAIAGY [R6P] | 1.83 |
| SMTTPTCYVGATVLRGRLYAIAGY [R6T] | 1.53 |
